Source: the supplement of paper PMC9170038

System: K4 kissing-loop RNA reporter
Experiment: apparent KD of K4 kissing-loop reporter; higher = weaker reporter binding
Settings: Eterna round: R107
Procedure: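 RNA-MaP round R107: designed RNA switches with theophylline, tryptophan, arginine or FMN aptamers are transcribed on-chip within common flanks. They are titrated with a labelled K4 kissing-loop RNA reporter in RNA-MaP buffer (100 mM Tris pH 7.5, 80 mM KCl, 4 mM MgCl2), without ligand or with the indicated ligand. Median apparent KD per design.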

[1] = input ligand: theophylline 20 uM
[2] = input ligand: tryptophan 2.4 mM
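Further: bound reporter read as fluorescence of individual clusters on recovered sequencing chips by microscopy, with normalized cluster intensities fitted with a binding model.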

| Sequence | apparent KD of K4 kissing-loop reporter (input ligand: FMN 200 uM) [nM] | apparent KD of K4 kissing-loop reporter (input ligand: arginine 13.2 mM) [nM] | apparent KD of K4 kissing-loop reporter (input ligand: none) [nM] | apparent KD of K4 kissing-loop reporter [1] [nM] | apparent KD of K4 kissing-loop reporter [2] [nM] |
| --- | --- | --- | --- | --- | --- |
| AGGCACGAGCAAGGAUAUCGAGUAGAGUGAUGUUCUGCCUGGGUUGGCUCGCAAGGGCCUUCCCAGCGAGAAGGUGCUCGUGCCU [#2 Same State - FMN A Attempt #17 (HarryS)] | 277 | 743 | 772 | 745 | 830 |
| AGUGAUGUUGUGUGAUGUUAGUGAAGUGAUCGAGGACCGGUACGGCCGCCACUCGAGUGAUGAGUGAGUGAUGUUUGUUUAGUGG [#17 K4 Tryptophan A Same State] | 258 | 124 | 206 | 186 | 139 |
| CAAAUGUUGUCAGGAUAUGAGCGCAGUGAUGUUGCGGUUGUAUUUAUGACUGGAGCAGCGUAAGCCUCAGAAGGGACAAGUUGCC [Qubioran] | 167 | 92.2 | 106 | 84.9 | 99.3 |
| AGUGAUGUUCCUCCUCUUGGUCUUGGUGGGCGAGGACCGGUACGGCCGCCACUCGAUGUGGGAGUGAUGUUUCCAUAUGAUGUUU [Tryptophan A] | 568 | 580 | 621 | 675 | 401 |
| AAAUGACAAGUAAUAAAGAAAAGCGGCGAUACCAGUAAGAACGUAUACCCUUGGCAGCGCAUAUUAGAGUGAUGUUCUAAUCCGA [theeternabot_sameState_KL_Theo_A_25] | 129 | 174 | 148 | 220 | 99.3 |
| AAUAAGGUCGCCGAUACCAGCGCGGGCAGAGCAAAGCUCUGCCCGGUAGUGAUGUUACCGCGCCCUUGGCAGCGGUGGCACGACC [Omei KL Theo B SS C v6] | 152 | 58.3 | 126 | 159 | 63.3 |
| AGGCACGAGCAAGGAUAUCGAGUAGAGUGAUGUUCUGCCUGGGUUGGCCCGUAAGGGCCUUCCCAGCGAGAAGGUGCUCGUGCCU [#2 Same State - FMN A Attempt #10 (HarryS)] | 233 | 505 | 647 | 679 | 536 |
| AGAGAUAUAUGAGGAUAUGAGAUAGUUAAUGAGUGAGUUUUAGUGUUGUUUGGUUAGUGAUGUUAUUUAGAAGGCGUGAGUGAUG [grrfullin] | 97.7 | 66.5 | 70.2 | 80 | 65.7 |
| CUGUACAUCUCGGCCGCCACUGACCUAAGUGAUGUUAGGAAUGAAACCUAGUGAUGUUAGCAAACCAGGACCGGGAGGUGUGCAG [KL-SSTryp-B4 #Double Kiss] | 110 | 33.4 | 83.2 | 40.2 | 51.8 |
| AAGGGCUAGGCGGCCGCCACUGGUUGUGAACACAUACGAGCCAGUGAUGUUGGUAUUGUGUGCGGCAGGACCGGGCCUAGCCGAA [Exclusion - Tryptophan B (Freestyle 23)] | 360 | 299 | 346 | 300 | 322 |
| GUGCAGUGAUGUUGCACGAGGAAAGACGAUACCAGCCGUAAAUAAGGCCCUUGGCAGCGUGGGCUAGCAUAAAGCAUGCUAGUCU [Edbemavela] | 126 | 97.7 | 113 | 111 | 99.6 |
| CAUACGCAUGGAGGAUAUGAGAUUACUCAUGUCAUUUAAUAUUCUCAGUGAUGUUGAGAUUUUGGCUCAGAAGGCCAUGUGUAUG [Ex FMN B 18] | 436 | 496 | 534 | 599 | 543 |
| UUCGAUCAGUGAUGUUGAUCAAUAGUCGAAGGAGCGCUAUAGAUAGCAGGUAGGUCGCGACUACAAGGUGUUAAGACACCUCGAA [Arg A SS t9] | 505 | 430 | 525 | 443 | 431 |
| AGGAUCCGUCGACAAAAGUCGACAAUAACCAAGGAUAUGACGAAAGUCAGAAGGUGGUCUUAUGACCAGUGAUGUUGGUGGAUCC [FmnA 15 #SwitchBubble #K4Late] | 891 | 245 | 500 | 197 | 243 |
| AGCGACUCGAAAGGGUCGCGGCUAAGGGAUACCAGUGAUGUUGGUCACCCUUGGCAGCCCAGAAGCCAAGCCACCAAAGGUGGCA [Omei KL Theo A Exc A v10] | 124 | 99 | 119 | 114 | 116 |
| GGAUAGGAAAGAGGAUAUGGGCUAGGCAAGAAUAACUUGUCUAGCAAAUCCAUGAGGAGUGAUGUUCCAGAAGGCUUUCCUAUCG [FmnBX 1 A9+U77] | 995 | 141 | 160 | 157 | 126 |
| AGAUUCGACACGGCCGCCACUCGUGGUGGAUUAUCCUAUGUAAGACAUGAGUGAUGUUCAUGUACGAGGACCGGGUGUUGAGUCU [KL-XTryp-B5 #analogue] | 496 | 403 | 488 | 568 | 272 |
